Where “and” joins values, the source holds several entries; their conditions need not be identical. Equal entries are not always repeated. Where two headings read alike, the source gives them in different places. Each block holds one substance with its values, some of them ahead of it.
Legend:
[1] = target: CAT-2200 lambda light chain S176K_Y178K (L1), N-terminal FLAG tag; test: LCCA, SPR of light chain tags
[2] = target: CAT-2200 lambda light chain S176K_Y178R (L1), N-terminal FLAG tag; test: LCCA, SPR of light chain tags
[3] = target: CAT-2200 lambda light chain S176K_Y178L (L1), N-terminal FLAG tag; test: LCCA, SPR of light chain tags
[4] = target: Pertuzumab kappa light chain Q124E_Q160E_T180E (L2), N-terminal HA tag; test: LCCA, SPR of light chain tags
[5] = target: Pertuzumab kappa light chain Q124E_Q160E_T180E (L2), N-terminal HA tag; test: LCCA, SPR of light chain tags; remark: listed apart in the source
[6] = target: Pertuzumab kappa light chain Q124E_Q160E_T180E (L2), N-terminal HA tag; test: LCCA, SPR of light chain tags; remark: listed apart in the source
[7] = target: Recombinant human IL-17A (human) (UniProt Q16552); test: SPR
[8] = target: Recombinant human IL-17A (human) (UniProt Q16552); test: SPR; remark: listed apart in the source
[9] = target: Recombinant HER2 protein (HER2-ECD) (UniProt P04626); test: SPR, Fab captured via anti-penta-His, HER2 as analyte
[10] = target: CR8071 lambda light chain L1 with E124Q_T131K; test: SMCA System C: four chains co-expressed, protein A, LC-MS
[11] = target: CR8071 lambda light chain E124Q_T131R (L1 of designs 3971, 3972 and 3987, system C); test: SMCA: H1, L1, H2, L2 co-expressed, protein A, LC-MS
[12] = target: Recombinant human IL-17A (human) (UniProt Q16552); test: SPR, IL-17A immobilised, Fab as analyte
[13] = target: Pertuzumab kappa light chain Q124E_V133D_L135A; test: LCCA, SPR tag read-out
[14] = target: Pertuzumab light chain (kappa) V133G_S176D_T180E, HA-tagged; test: LCCA
[15] = target: Pertuzumab light chain (kappa) V133G_S176D_T178E, HA-tagged; test: LCCA
[16] = target: Pertuzumab light chain (kappa) V133G_S176D_T180E, HA-tagged; test: LCCA; remark: listed apart in the source
[17] = target: Pertuzumab light chain (kappa) V133G_S176D_T178E, HA-tagged; test: LCCA; remark: listed apart in the source
[18] = target: Pertuzumab kappa light chain S131K_V133G_S176R_T178A (L2), HA-tagged; test: LCCA, SPR of light-chain tags
[19] = target: Pertuzumab kappa light chain S131R_V133G_S176R_T178A (L2), HA-tagged; test: LCCA, SPR of light-chain tags
[20] = target: Pertuzumab kappa light chain S131R_V133G_S176R_T178A (L2), HA-tagged; test: LCCA, SPR of light-chain tags; remark: listed apart in the source
[21] = target: CR8071 lambda light chain L1 E124Q_T131R (designs 3971 and 3972, System C); test: SMCA: H1, L1, H2, L2 co-expressed, protein A, LC-MS
[22] = target: Recombinant human IL-17A (human) (UniProt Q16552); test: SPR; remark: listed apart in the source
[23] = target: Recombinant HER2 protein (HER2-ECD) (UniProt P04626); test: SPR
[24] = target: Pertuzumab kappa light chain S131K_L135K; test: LCCA, SPR tag read-out
[25] = target: Pertuzumab kappa light chain Q124E_V133D (L2), N-terminal HA tag; test: LCCA, SPR of light chain tags
[26] = target: Pertuzumab kappa light chain Q124E_V133D (L2), N-terminal HA tag; test: LCCA, SPR of light chain tags; remark: listed apart in the source
[27] = target: Pertuzumab kappa light chain Q124E_V133D (L2), N-terminal HA tag; test: LCCA, SPR of light chain tags; remark: listed apart in the source
[28] = target: Pertuzumab kappa light chain V133G_S176D_T178E; test: LCCA, SPR
[29] = target: Pertuzumab kappa light chain V133G_S176D_T180E; test: LCCA, SPR
[30] = target: Pertuzumab kappa light chain V133G_L135W_S176D_T180E; test: LCCA, SPR tag read-out
[31] = target: Pertuzumab kappa light chain V133G_S176D_T178E; test: LCCA, SPR; remark: listed apart in the source
[32] = target: Pertuzumab kappa light chain V133G_S176D_T180E; test: LCCA, SPR; remark: listed apart in the source
[33] = target: CAT-2200 lambda light chain E124Q_T131K; test: LCCA, SPR
[34] = target: Pertuzumab kappa light chain L135A (L2), N-terminal HA tag; test: LCCA, SPR of light chain tags
[35] = target: Pertuzumab kappa light chain L135A (L2), N-terminal HA tag; test: LCCA, SPR of light chain tags; remark: listed apart in the source
[36] = target: Pertuzumab kappa light chain T178F (L2), N-terminal HA tag; test: LCCA, SPR of light chain tags
[37] = target: CAT-2200 lambda light chain T116F_S176F (L1), N-terminal FLAG tag; test: LCCA, SPR of light chain tags
[38] = target: Pertuzumab kappa light chain, wild type (L2), N-terminal HA tag; test: LCCA, SPR of light chain tags
[39] = target: Pertuzumab kappa light chain V133A_S176K_T178A (L2), HA-tagged; test: LCCA, SPR of light-chain tags
[40] = target: Pertuzumab kappa light chain V133G_S176R_T178A (L2), HA-tagged; test: LCCA, SPR of light-chain tags
[41] = target: Pertuzumab kappa light chain V133A_S176K_T178A (L2), HA-tagged; test: LCCA, SPR of light-chain tags; remark: listed apart in the source
[42] = target: Pertuzumab kappa light chain V133G_S176R_T178A (L2), HA-tagged; test: LCCA, SPR of light-chain tags; remark: listed apart in the source

Substance: CAT-2200 Fab heterodimer (H1L1) with H1 V177I_S188K and L1 V133I_S176D_Y178E
- Kd [7]: 0.23 nM
- Change in KD of H1L1 Fab vs wild type [8]: 0.08

Substance: CR8071 heavy chain H1 with L143D_K145T
- % H1L1 Pairing [10]: 79.7%
- Change in % H1L1 Pairing with respect to wild type [10]: 11.6%

Substance: Pertuzumab Fab heavy chain L143R_V190F
- H2L2:H2L1 median scalar value [13]: 1.25 ln(ratio)

Substance: Pertuzumab Fab heavy chain L143I_S186K_V190F
- H2L2:H2L1 median scalar value [13]: -0.49 ln(ratio)

Substance: Pertuzumab Fab heavy chain L124E_K145T_Q179E_S186I_S188W (H2)
- H2L2:H2L1 normalized median scalar value ln(r1/f1) [18]: 0.9
- H2L2:H2L1 normalized median scalar value ln(r1/f1) [19]: 1.24
- H2L2:H2L1 normalized median scalar value ln(r1/f1) [20]: 1.55

Substance: Pertuzumab designed Fab heterodimer H2L2: H2 L45P_L143E_K145T_Q179E / L2 P44F_Q124K_T178R
- Kd [9]: 6 nM

Substance: Pertuzumab Fab heavy chain S186K_V190F
- H2L2:H2L1 median scalar value [13]: -0.45 ln(ratio)

Substance: CAT-2200 Fab heterodimer (H1L1) with H1 S188K and L1 S176D_Y178E
- Kd [7]: 0.37 nM
- Change in KD of H1L1 Fab vs wild type [8]: -0.13
- Change in KD of H1L1 Fab vs wild type, -(log(KD design)-log(KD wt)) [8]: -0.13
- Kd [8]: 0.37 nM

Substance: CR8071 heavy chain H1 with L143E_K145T_Q179E
- % H1L1 Pairing [10]: 84.7%
- Change in % H1L1 Pairing with respect to wild type [10]: 36.3%

Substance: Pertuzumab Fab heavy chain L124E_K145T
- H2L2:H2L1 median scalar value [24]: 0.85 ln(ratio)

Substance: Pertuzumab designed Fab heterodimer H2L2: H2 Q39E_L124E_K145T_Q179E / L2 Q38R_S131R_V133G_S176R
- Change in KD of H2L2 Fab vs wild type [23]: -0.0084
- Kd [9]: 7.9 nM

Substance: CAT-2200 wild type one-armed antibody (OAA), HA-tagged light chain
- Kd [8]: 0.373 nM
- Kd [22]: 0.35 nM

The remaining lines, values ahead:

- H2L2:H2L1 normalized median ratio [1]: 9%
- H2L2:H2L1 normalized median ratio [2]: 4%
- H2L2:H2L1 normalized median ratio [3]: 13%
- H2L2:H2L1 normalized median ratio [4]: 87%
- H2L2:H2L1 normalized median scalar value ln(r1/f1) [4]: 1.88
- H2L2:H2L1 normalized median ratio [5]: 91%
- H2L2:H2L1 normalized median scalar value ln(r1/f1) [5]: 2.33
- H2L2:H2L1 normalized median ratio [6]: 96%
- H2L2:H2L1 normalized median scalar value ln(r1/f1) [6]: 3.21
Substance: Pertuzumab Fab heavy chain Q179K (H2), ABD2-His6 tagged

- Kd [9]: 5.8 nM
Substance: Pertuzumab designed Fab heterodimer H2L2: H2 L45P_L124E_K145T_Q179E / L2 P44F_S131R_V133G_S176R

- % H1L1 Pairing [11]: 89%
- Change in % H1L1 Pairing with respect to wild type [11]: 40.6%
Substance: CR8071 heavy chain L143D_K145T (H1 of design 3971, system C)

- Kd [12]: 0.29 nM
- Change in KD of H1L1 Fab vs wild type [8]: -0.14
Substance: CAT-2200 designed Fab heterodimer H1L1: H1 L143E_K145T_Q179E / L1 E124Q_T131R

- H2L2:H2L1 normalized median scalar value ln(r1/f1) [14]: 1.32
- H2L2:H2L1 normalized median scalar value ln(r1/f1) [15]: 1.22
- H2L2:H2L1 normalized median scalar value ln(r1/f1) [16]: 1.47
- H2L2:H2L1 normalized median scalar value ln(r1/f1) [17]: 1.12
Substance: Pertuzumab heavy chain Fab construct L124R_S186K

- % H1L1 Pairing [21]: 92.8%
- Change in % H1L1 Pairing with respect to wild type [21]: 44.4%
Substance: CR8071 heavy chain H1 A139W_L143D_K145T (design 3972, System C)

- Kd [12]: 0.26 nM
- Change in KD of H1L1 Fab vs wild type [8]: -0.09
Substance: CAT-2200 designed Fab heterodimer H1L1: H1 L143K / L1 K129T_V133D

- Kd [12]: 0.24 nM
- Change in KD of H1L1 Fab vs wild type [8]: -0.056
Substance: CAT-2200 designed Fab heterodimer H1L1: H1 Q179K / L1 K129T_S180E

- Kd [8]: 0.375 nM
- Kd [22]: 0.366 nM
Substance: CAT-2200 wild type one-armed antibody (OAA), FLAG-tagged light chain

- Kd [8]: 0.282 nM
- Kd [22]: 0.287 nM
Substance: CAT-2200 wild type one-armed antibody (OAA), no tags

- Kd [12]: 0.26 nM
- Change in KD of H1L1 Fab vs wild type [8]: -0.088
Substance: CAT-2200 designed Fab heterodimer H1L1: H1 S186R / L1 K129T_S180E

- Change in KD of H2L2 Fab vs wild type [23]: 0.023
- Kd [9]: 7.4 nM
Substance: Pertuzumab designed Fab heterodimer H2L2: H2 Q39E_L143E_K145T_Q179E / L2 Q38R_Q124K_T178R

- Kd [7]: 0.36 nM
- Change in KD of H1L1 Fab vs wild type [8]: -0.12
Substance: CAT-2200 Fab heterodimer (H1L1) with H1 S188K and L1 S176E_Y178E

- % H1L1 Pairing [21]: 89%
- Change in % H1L1 Pairing with respect to wild type [21]: 40.6%
Substance: CR8071 heavy chain H1 L143D_K145T (design 3971, System C)

- % H1L1 Pairing [11]: 92.8% and 99.2%
- Change in % H1L1 Pairing with respect to wild type [11]: 44.4% and 50.8%
Substance: CR8071 heavy chain A139W_L143D_K145T (H1 of designs 3972 and 3987, system C)

- H2L2:H2L1 normalized median ratio [1]: 21%
- H2L2:H2L1 normalized median ratio [2]: 14%
- H2L2:H2L1 normalized median ratio [25]: 82%
- H2L2:H2L1 normalized median scalar value ln(r1/f1) [25]: 1.53
- H2L2:H2L1 normalized median ratio [26]: 79%
- H2L2:H2L1 normalized median scalar value ln(r1/f1) [26]: 1.3
- H2L2:H2L1 normalized median ratio [27]: 86%
- H2L2:H2L1 normalized median scalar value ln(r1/f1) [27]: 1.84
Substance: Pertuzumab Fab heavy chain L143R (H2), ABD2-His6 tagged

- H2L2:H2L1 normalized median scalar value ln(r1/f1) [28]: 1.04
- H2L2:H2L1 normalized median scalar value ln(r1/f1) [29]: 1.5
- H2L2:H2L1 median scalar value [30]: 0.23 ln(ratio)
- H2L2:H2L1 normalized median scalar value ln(r1/f1) [31]: 1.18
- H2L2:H2L1 normalized median scalar value ln(r1/f1) [32]: 1.47
- H2L2:H2L1 normalized median ratio [33]: 26%
Substance: Pertuzumab Fab heavy chain L124R_S186R

- H2L2:H2L1 normalized median ratio [34]: 46%
- H2L2:H2L1 normalized median scalar value ln(r1/f1) [34]: -0.16
- H2L2:H2L1 normalized median ratio [35]: 49%
- H2L2:H2L1 normalized median scalar value ln(r1/f1) [35]: -0.04
- H2L2:H2L1 normalized median ratio [36]: 65%
- H2L2:H2L1 normalized median scalar value ln(r1/f1) [36]: 0.62
- H2L2:H2L1 normalized median ratio [37]: 38%
- H2L2:H2L1 normalized median ratio [38]: 62%
- H2L2:H2L1 normalized median scalar value ln(r1/f1) [38]: 0.49
Substance: Pertuzumab Fab heavy chain L143I_V190F (H2), ABD2-His6 tagged

- H2L2:H2L1 normalized median scalar value ln(r1/f1) [39]: 0.65
- H2L2:H2L1 normalized median scalar value ln(r1/f1) [40]: 0.94
- H2L2:H2L1 normalized median scalar value ln(r1/f1) [41]: 1.03
- H2L2:H2L1 normalized median scalar value ln(r1/f1) [42]: 1.19
Substance: Pertuzumab Fab heavy chain L124E_S186I_S188W (H2)

From patent US20190338048A1
